This note sets out measurements from patent publication US11370837 (dated 2022).

In one assay the target is T1, human TIGIT-his (human, UniProt Q495A1).
T1 chain: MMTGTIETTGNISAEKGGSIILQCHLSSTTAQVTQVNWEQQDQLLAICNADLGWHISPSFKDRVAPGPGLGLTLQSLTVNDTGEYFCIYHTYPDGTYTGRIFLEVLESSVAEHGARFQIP
The assay can be described thus: BLI.

The target of the next assay is T2, mouse TIGIT-his (mouse, UniProt P86176).
T2 chain: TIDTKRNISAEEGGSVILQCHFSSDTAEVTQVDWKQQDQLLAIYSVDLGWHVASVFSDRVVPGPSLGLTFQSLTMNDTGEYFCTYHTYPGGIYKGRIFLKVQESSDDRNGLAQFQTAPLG
The assay is described as follows: BLI. For orientation: BLI is a label-free optical method that tracks binding on a fibre tip over time.

Another assay addresses monkey TIGIT-his (monkey). The assay can be described thus: BLI.
Assay [1] has as its target T3, human TIGIT on CHO cells (human, UniProt Q495A1).
T3 chain: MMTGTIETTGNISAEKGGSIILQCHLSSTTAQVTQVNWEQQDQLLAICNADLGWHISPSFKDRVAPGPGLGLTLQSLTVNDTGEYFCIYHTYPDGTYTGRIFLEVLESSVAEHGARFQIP
The assay can be described thus: FACS.

Assay [2] addresses T3, human TIGIT on CHO cells. The assay is described as follows: FACS, CHO-expressed antibody. In general terms: Flow cytometry measures light scatter and fluorescence of single cells or particles in a stream.
In assay [3] the target is T3, human TIGIT on CHO cells. The assay is described as follows: competition, CD155 blocking FACS.
The target of assay [4] is T3, human TIGIT on CHO cells. The assay can be described thus: competition, CD155 blocking FACS.
For assay [5], the target named is T3, human TIGIT on CHO cells. The assay is described as follows: competition.

For orientation: Kd means the equilibrium constant for the complex coming apart. What is called EC50 is the concentration that produces a half-maximal response. As a reminder, the IC50 is the point on the concentration scale where inhibition reaches its midpoint.

monkey TIGIT-his (monkey), sequence (Q495A1 other isoform, or with tags, fused parts or gaps): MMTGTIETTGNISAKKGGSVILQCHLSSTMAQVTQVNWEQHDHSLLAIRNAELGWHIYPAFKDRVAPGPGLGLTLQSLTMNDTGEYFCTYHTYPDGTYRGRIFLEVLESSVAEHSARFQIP

B1: ADI-30336 (antibody, V domains shown)
VH: QLQLQESGPGLVKPSETLSLTCTVSGGSISSSRYYWGWIRQPPGKGLEWIGSIYYSGSTYYNPSLKSRVTISVDTSKNQFSLKLSSVTAADTAVYYCARDGLYHTPEYFQHWGQGTLVTVSS
VL: EIVLTQSPATLSLSPGERATLSCRASQSVSSYLAWYQQKPGQAPRLLIYDASNRATGIPARFSGSGSGTDFTLTISSLEPEDFAVYYCQQRFAHPYTFGGGTKVEIK
In the case of B1, the values for the Kd in the assay with human TIGIT-his and with monkey TIGIT-his were 1.46 nM and 0.556 nM, respectively. In addition, in the assay with mouse TIGIT-his, the binding result is reported as “no binding”. Besides, the EC50 with human TIGIT on CHO cells [1] came out at 0.629 nM; with human TIGIT on CHO cells [2], 0.13 nM. In addition, the 50% inhibitory concentration (IC50) with human TIGIT on CHO cells [3] turned out to be 0.409 nM; with human TIGIT on CHO cells [4], 0.122 nM.

B2: ADI-30272 (antibody, V domains shown)
VH: QVQLVQSGAEVKKPGASVKVSCKASGYTFTEYYMHWVRQAPGQGLEWMGIISPSAGSTSYAQKFQGRVTMTRDTSTSTVYMELSSLRSEDTAVYYCARDHDIAAAGRLADYWGQGTLVTVSS
VL: DIQMTQSPSSVSASVGDRVTITCRASQGISSWLAWYQQKPGKAPKLLISAASSLQSGVPSRFSGSGSGTDFTLTISSLQPEDFATYYCQQAVILPITFGGGTKVEIK
For the molecule B2, the EC50 in the assay with human TIGIT on CHO cells [1] is 0.61 nM. For the same molecule, in the assay with human TIGIT on CHO cells [5], the IC50 came to 0.404 nM.
